From publication PMC3592575

Biological target: α-synuclein (α-syn) (UniProt P37840)
Assay: self-assembly into fibrils: ThT, monomer filtration, TEM
Conditions: reference: unphosphorylated WT α-syn (semisynthetic and recombinant); sites Y125

α-synuclein (α-syn) (from UniProt P37840) semisynthetic pY125 α-syn
binding against the reference: same
